B1: Nuclear factor of activated T-cells 5 (Homo sapiens), O94916-1 (parent)
chain: MPSDFISLLSADLDLESPKSLYSRESVYDLLPKELQLPPSRETSVASMSQTSGGEAGSPPPAVVAADASSAPSSSSMGGACSSFTTSSSPTIYSTSVTDSKAMQVESCSSAVGVSNRGVSEKQLTSNTVQQHPSTPKRHTVLYISPPPEDLLDNSRMSCQDEGCGLESEQSCSMWMEDSPSNFSNMSTSSYNDNTEVPRKSRKRNPKQRPGVKRRDCEESNMDIFDADSAKAPHYVLSQLTTDNKGNSKAGNGTLENQKGTGVKKSPMLCGQYPVKSEGKELKIVVQPETQHRARYLTEGSRGSVKDRTQQGFPTVKLEGHNEPVVLQVFVGNDSGRVKPHGFYQACRVTGRNTTPCKEVDIEGTTVIEVGLDPSNNMTLAVDCVGILKLRNADVEARIGIAGSKKKSTRARLVFRVNIMRKDGSTLTLQTPSSPILCTQPAGVPEILKKSLHSCSVKGEEEVFLIGKNFLKGTKVIFQENVSDENSWKSEAEIDMELFHQNHLIVKVPPYHDQHITLPVSVGIYVVTNAGRSHDVQPFTYTPDPAAAGALNVNVKKEISSPARPCSFEEAMKAMKTTGCNLDKVNIIPNALMTPLIPSSMIKSEDVTPMEVTAEKRSSTIFKTTKSVGSTQQTLENISNIAGNGSFSSPSSSHLPSENEKQQQIQPKAYNPETLTTIQTQDISQPGTFPAVSASSQLPNSDALLQQATQFQTRETQSREILQSDGTVVNLSQLTEASQQQQQSPLQEQAQTLQQQISSNIFPSPNSVSQLQNTIQQLQAGSFTGSTASGSSGSVDLVQQVLEAQQQLSSVLFSAPDGNENVQEQLSADIFQQVSQIQSGVSPGMFSSTEPTVHTRPDNLLPGRAESVHPQSENTLSNQQQQQQQQQQVMESSAAMVMEMQQSICQAAAQIQSELFPSTASANGNLQQSPVYQQTSHMMSALSTNEDMQMQCELFSSPPAVSGNETSTTTTQQVATPGTTMFQTSSSGDGEETGTQAKQIQNSVFQTMVQMQHSGDNQPQVNLFSSTKSMMSVQNSGTQQQGNGLFQQGNEMMSLQSGNFLQQSSHSQAQLFHPQNPIADAQNLSQETQGSLFHSPNPIVHSQTSTTSSEQMQPPMFHSQSTIAVLQGSSVPQDQQSTNIFLSQSPMNNLQTNTVAQEAFFAAPNSISPLQSTSNSEQQAAFQQQAPISHIQTPMLSQEQAQPPQQGLFQPQVALGSLPPNPMPQSQQGTMFQSQHSIVAMQSNSPSQEQQQQQQQQQQQQQQQQQSILFSNQNTMATMASPKQPPPNMIFNPNQNPMANQEQQNQSIFHQQSNMAPMNQEQQPMQFQSQSTVSSLQNPGPTQSESSQTPLFHSSPQIQLVQGSPSSQEQQVTLFLSPASMSALQTSINQQDMQQSPLYSPQNNMPGIQGATSSPQPQATLFHNTAGGTMNQLQNSPGSSQQTSGMFLFGIQNNCSQLLTSGPATLPDQLMAISQPGQPQNEGQPPVTTLLSQQMPENSPLASSINTNQNIEKIDLLVSLQNQGNNLTGSF
partner: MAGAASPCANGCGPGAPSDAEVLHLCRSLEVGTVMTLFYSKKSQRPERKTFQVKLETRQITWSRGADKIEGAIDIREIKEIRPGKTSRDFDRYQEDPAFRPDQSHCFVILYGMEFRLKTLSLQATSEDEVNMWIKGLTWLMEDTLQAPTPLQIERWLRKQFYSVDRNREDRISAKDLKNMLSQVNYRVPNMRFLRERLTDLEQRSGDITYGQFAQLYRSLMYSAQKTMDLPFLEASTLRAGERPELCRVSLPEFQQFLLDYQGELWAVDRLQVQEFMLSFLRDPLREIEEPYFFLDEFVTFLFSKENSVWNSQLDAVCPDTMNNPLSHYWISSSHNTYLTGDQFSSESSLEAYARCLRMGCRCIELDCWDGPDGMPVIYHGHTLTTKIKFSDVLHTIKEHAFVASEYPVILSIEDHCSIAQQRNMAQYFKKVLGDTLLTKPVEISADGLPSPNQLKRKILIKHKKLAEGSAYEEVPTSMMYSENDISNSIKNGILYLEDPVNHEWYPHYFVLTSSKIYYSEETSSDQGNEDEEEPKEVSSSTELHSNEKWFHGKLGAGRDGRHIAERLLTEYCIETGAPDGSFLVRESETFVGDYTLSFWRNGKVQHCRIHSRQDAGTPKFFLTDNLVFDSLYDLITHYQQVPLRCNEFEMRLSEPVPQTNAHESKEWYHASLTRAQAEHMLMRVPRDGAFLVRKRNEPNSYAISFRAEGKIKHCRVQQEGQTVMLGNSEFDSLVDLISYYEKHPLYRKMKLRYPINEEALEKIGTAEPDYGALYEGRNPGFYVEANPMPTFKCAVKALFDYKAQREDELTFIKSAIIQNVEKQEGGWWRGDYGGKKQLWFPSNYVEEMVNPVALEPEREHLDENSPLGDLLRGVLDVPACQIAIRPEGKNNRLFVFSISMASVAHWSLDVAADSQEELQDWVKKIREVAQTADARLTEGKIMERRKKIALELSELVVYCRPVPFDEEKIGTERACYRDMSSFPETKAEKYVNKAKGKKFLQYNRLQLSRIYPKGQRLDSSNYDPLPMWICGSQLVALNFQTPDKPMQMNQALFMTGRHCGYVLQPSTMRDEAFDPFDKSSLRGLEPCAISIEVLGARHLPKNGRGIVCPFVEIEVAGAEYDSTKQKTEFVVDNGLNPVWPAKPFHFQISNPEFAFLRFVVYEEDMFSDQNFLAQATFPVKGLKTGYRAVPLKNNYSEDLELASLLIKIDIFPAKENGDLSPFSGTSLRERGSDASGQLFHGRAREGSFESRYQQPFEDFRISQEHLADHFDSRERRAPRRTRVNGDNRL

Variants of: B1
Details: with plcg1_human PLCG1, P19174

Variant | effect of a mutation on the interaction
Y143A | decreasing interaction

Reference: IntAct's records for PubMed 20080774
